In patent publication US20070172423A1, “Composition and method for modulating vasculogenesis for angiogenesis” (priority 1998, published 2007):

How the values were obtained:
[1] = test system: infarcted heart area; assay: Revascularization following heart infarction (LAD ligation), Examples 16-17; type: in vivo, mice
Experimental: Chronic myocardial ischemia was replicated by ligation of the left anterior descending (LAD) coronary artery using anesthetized 10 week old normal C57B16 mice. For PDGF-C treatment mice, 10 μg of recombinant human PDGF-CC core domain protein produced in baculovirus infected insect cells were administered after heart infarction using a subcutaneous osmotic minipump for seven days (ALZET™osmotic pump, DURECT Corporation, Cupertino, Calif.). Seven days after LAD ligation, infarcted hearts were fixed and collected. The PDGF-CC core domain protein (SEQ ID NO: 40) corresponds to corresponds to residues 230-345 of full-length PDGF-C protein i.e. amino acids 230-345 of SEQ ID NO:3. The hearts were sectioned longitudinally into 6 μm sections. Hematoxylin-eosine and immunohistochemical stainings were performed using thrombomodulin as a marker for endothelial cells. Smooth muscle alpha-actin was used as a marker for vascular smooth muscle cells. Infarcted areas and vessel densities were calculated using a Quantinet Q600 image analysis system (Leica, Brussels, Belgium). Data were statistically analyzed using the Student T test.
The same experiment as discussed in Example 16 was repeated using 30 μg recombinant PDGF-C per mouse.

[2] = target: PDGF alpha receptors (Homo sapiens, UniProt P16234); assay: Binding of radiolabeled truncated PDGF-C to PAE-1 cells expressing PDGF alpha receptors; set-up: expressed in transfected cells; host or cells: porcine aortic endothelial (PAE-1) cells; conditions: 125I-labeled protein, on ice 90 minutes
Chain of PDGF alpha receptors (P16234 24-1089): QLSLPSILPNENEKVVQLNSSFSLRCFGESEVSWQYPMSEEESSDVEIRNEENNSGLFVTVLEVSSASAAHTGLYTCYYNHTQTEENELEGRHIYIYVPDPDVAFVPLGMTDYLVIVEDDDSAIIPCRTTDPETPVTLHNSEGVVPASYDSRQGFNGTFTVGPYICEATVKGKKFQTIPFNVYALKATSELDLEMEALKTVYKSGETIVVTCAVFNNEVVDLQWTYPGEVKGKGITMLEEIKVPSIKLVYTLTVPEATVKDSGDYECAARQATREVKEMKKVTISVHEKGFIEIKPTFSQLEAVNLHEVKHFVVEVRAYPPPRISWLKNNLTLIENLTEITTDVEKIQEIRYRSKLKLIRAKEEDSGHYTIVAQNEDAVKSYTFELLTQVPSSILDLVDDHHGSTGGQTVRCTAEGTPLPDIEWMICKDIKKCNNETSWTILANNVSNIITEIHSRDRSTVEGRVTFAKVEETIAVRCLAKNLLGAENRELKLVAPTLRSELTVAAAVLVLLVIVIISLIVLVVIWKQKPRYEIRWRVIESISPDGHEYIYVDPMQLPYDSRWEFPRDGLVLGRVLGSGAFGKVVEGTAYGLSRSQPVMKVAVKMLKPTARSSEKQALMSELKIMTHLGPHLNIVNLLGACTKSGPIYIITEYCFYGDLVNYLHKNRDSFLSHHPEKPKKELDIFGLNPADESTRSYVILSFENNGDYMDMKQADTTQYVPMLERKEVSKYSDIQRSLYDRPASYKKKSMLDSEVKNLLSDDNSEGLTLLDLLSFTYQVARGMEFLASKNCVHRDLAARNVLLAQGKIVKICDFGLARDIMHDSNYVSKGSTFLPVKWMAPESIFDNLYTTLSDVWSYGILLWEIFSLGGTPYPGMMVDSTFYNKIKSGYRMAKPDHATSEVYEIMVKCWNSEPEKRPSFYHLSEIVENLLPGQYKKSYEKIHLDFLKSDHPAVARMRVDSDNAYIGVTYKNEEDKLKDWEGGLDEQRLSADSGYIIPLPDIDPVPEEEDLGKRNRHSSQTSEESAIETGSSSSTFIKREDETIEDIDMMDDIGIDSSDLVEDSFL
Experimental: To assess the interactions between truncated PDGF-C and the PDGF alpha and beta receptors, truncated PDGF-C was tested for its capacity to bind to porcine aortic endothelial-1 (PAE-1) cells expressing PDGF alpha or beta receptors, respectively (Eriksson et al., EMBO J, 1992 11:543-550). The binding experiments were performed essentially as described in Heldin et al. (EMBO J, 1988 7:1387 1393). Five micrograms of truncated PDGF-C protein in ten microliters of sodium borate buffer was radiolabeled using the Bolton-Hunter reagent (Amersham) to a specific activity of 4×10^5 cpm/ng. Different concentrations of radiolabeled truncated PDGF-C, with or without added unlabeled protein, in binding buffer (PBS containing 1 mg/ml of bovine serum albumin) was added to the receptor expressing PAE-1 cells plated in 24-well culture dishes on ice for 90 minutes. After three washes with binding buffer, cell-bound ^125I-labeled PDGF-C was extracted by lysis of cells in 20 mM Tris-HCl, pH 7.5, 10% glycerol, 1% Triton X-100. The amount of cell-bound radioactivity was determined in a gamma-counter. Non-specific binding was estimated by including a 100-fold molar excess of truncated PDGF-C in some experiments. […] The binding was specific as radiolabeled PDGF-C was quantitatively displaced by a 100-fold molar excess of unlabeled protein.

[3] = target: T1, human VEGFR-2 (Homo sapiens, UniProt P35968); assay: Binding to soluble VEGFR-2-Ig fusion protein; conditions: 35S-labeled protein in conditioned medium from 293 cells, precipitation with Ig-fusion protein
T1 construct: soluble Ig-fusion proteins containing the extracellular domains of human VEGFR-1, VEGFR-2 and VEGFR-3; made in house; host or cells: human 293 EBNA cells, transient expression
T1 sequence (P35968 20-764 limits assumed): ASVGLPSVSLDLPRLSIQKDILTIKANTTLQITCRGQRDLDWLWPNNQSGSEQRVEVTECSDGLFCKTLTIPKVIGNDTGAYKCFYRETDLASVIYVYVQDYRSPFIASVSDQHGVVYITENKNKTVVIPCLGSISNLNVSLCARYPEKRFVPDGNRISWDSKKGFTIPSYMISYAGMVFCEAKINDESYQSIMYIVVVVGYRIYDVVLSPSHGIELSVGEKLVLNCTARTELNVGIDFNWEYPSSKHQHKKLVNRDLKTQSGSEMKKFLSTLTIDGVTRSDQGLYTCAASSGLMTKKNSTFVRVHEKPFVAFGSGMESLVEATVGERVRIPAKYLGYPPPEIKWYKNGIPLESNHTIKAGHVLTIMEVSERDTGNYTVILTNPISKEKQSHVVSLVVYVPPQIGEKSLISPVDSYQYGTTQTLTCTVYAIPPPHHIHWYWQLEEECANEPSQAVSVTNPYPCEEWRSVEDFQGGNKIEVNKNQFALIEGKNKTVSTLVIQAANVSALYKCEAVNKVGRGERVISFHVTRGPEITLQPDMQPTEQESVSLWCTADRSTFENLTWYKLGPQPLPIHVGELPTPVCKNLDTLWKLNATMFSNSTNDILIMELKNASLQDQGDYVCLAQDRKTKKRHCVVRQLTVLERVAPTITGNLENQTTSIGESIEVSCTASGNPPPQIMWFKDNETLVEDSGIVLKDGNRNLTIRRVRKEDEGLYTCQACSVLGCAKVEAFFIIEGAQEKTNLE
Experimental: (§1) To assess the interactions between full length and truncated PDGF-C and the VEGF receptors, full length and truncated PDGF-C were tested for their capacity to bind to soluble Ig-fusion proteins containing the extracellular domains of human VEGFR-1, VEGFR-2 and VEGFR-3 (Olofsson et al., Proc. Natl. Acad. Sci. USA, 1998 95:11709-11714). The fusion proteins, designated VEGFR-1-Ig, VEGFR-2-Ig and VEGFR-3-Ig, were transiently expressed in human 293 EBNA cells. All Ig fusion proteins were human VEGFRs. Cells were incubated for 24 hours after transfection, washed with Dulbecco's Modified Eagle Medium (DMEM) containing 0.2% bovine serum albumin and starved for 24 hours. The fusion proteins were then precipitated from the clarified conditioned medium using protein A-Sepharose beads (Pharmacia). The beads were combined with 100 microliters of 10× binding buffer (5% bovine serum albumin, 0.2% Tween 20 and 10 µg/ml heparin) and 900 microliter of conditioned medium from 293 cells that had been transfected with mammalian expression plasmids encoding full length or truncated PDGF-C or control vector, then metabolically labeled with ^35S-cysteine and methionine (Promix, Amersham) for 4 to 6 hours. […] Labeled proteins that were bound to the Ig-fusion proteins were analyzed by SDS-PAGE under reducing conditions. Radiolabeled proteins were detected using a phosphorimager analyzer.

[4] = target: T2, human VEGFR-1 (Homo sapiens, UniProt P17948); assay: Binding to soluble VEGFR-1-Ig fusion protein; conditions: 35S-labeled protein in conditioned medium from 293 cells, precipitation with Ig-fusion protein
T2 construct: soluble Ig-fusion proteins containing the extracellular domains of human VEGFR-1, VEGFR-2 and VEGFR-3; made in house; host or cells: human 293 EBNA cells, transient expression
T2 sequence (P17948 27-758 limits assumed): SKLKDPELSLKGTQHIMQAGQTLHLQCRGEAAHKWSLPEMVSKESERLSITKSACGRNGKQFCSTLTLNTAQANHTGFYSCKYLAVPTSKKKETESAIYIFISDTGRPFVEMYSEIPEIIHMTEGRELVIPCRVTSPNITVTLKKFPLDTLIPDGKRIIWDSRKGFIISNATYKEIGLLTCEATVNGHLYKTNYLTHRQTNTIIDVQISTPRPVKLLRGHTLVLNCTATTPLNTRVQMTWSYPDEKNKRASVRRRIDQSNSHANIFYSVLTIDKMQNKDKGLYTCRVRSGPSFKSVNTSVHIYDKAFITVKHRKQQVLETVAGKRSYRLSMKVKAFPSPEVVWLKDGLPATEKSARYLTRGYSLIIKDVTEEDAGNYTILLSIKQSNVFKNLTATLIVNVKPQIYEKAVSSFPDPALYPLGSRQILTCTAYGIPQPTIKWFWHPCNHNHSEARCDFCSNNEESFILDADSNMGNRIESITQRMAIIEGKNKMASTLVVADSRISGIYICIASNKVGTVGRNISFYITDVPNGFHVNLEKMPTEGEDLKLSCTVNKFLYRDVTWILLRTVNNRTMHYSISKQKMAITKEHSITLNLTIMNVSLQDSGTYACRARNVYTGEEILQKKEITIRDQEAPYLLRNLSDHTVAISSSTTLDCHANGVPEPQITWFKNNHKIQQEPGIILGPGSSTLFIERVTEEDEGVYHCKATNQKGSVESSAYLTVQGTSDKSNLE
Experimental: as §1

[5] = 10 μg by osmotic minipump for seven days
[6] = 10 μg by osmotic minipump for seven days, average ±SD

B1: PDGF-CC: recombinant human PDGF-CC core domain homodimer, residues 230-345 of full-length PDGF-C (SEQ ID NO:40), produced in baculovirus infected insect cells (protein)
chain: GRKSRVVDLNLLTEEVRLYSCTPRNFSVSIREELKRTDTIFWPGCLLVKRCGGNCACCLHNCNECQCVPSKVTKKYHEVLQLRPKTGVRGLHKSLTDVALEHHEECDCVCRGSTGG
modifications: homodimer; PDGF-C core domain
For B1, the “large vessel (>30 μm) density relative to normal (untreated) mice” value [1, 5] was 114%, the “medium vessel (10-30 μm) density relative to normal (untreated) mice” value [1, 5] was 111% and the “small vessel (<10 μm) density relative to normal (untreated) mice” value [1, 5] was 159.4%. For the same molecule, the “large vessel (>30 μm) density” value [1, 6] was 8.3±3.2 large vessels/mm^2, the “medium vessel (10-30 μm) density” value [1, 6] was 14.5±3.7 medium vessels/mm^2 and the “small vessel (<10 μm) density” value [1, 6] was 33.2±12.5 small vessels/mm^2. For the same molecule, the total vessel density ([1]; 10 μg by osmotic minipump for seven days, average ±SD, n=6) was 56±16.6 total vessels/mm^2, the “total vessel density relative to normal (untreated) mice” value ([1]; 10 μg by osmotic minipump for seven days, infarcted area) was “about 136%” and the “SMA positive large vessel density relative to normal (untreated) mice” value ([1]; 30 μg per mouse over 7 days) was 114%. The “SMA positive medium vessel density relative to normal (untreated) mice” value ([1]; 30 μg per mouse over 7 days) was 142%, the “SMA positive small vessel density relative to normal (untreated) mice” value ([1]; 30 μg per mouse over 7 days) was 145% and the “thrombomodulin positive large vessel density relative to normal (untreated) mice” value ([1]; 30 μg per mouse over 7 days) was 167%. The “thrombomodulin positive medium vessel density relative to normal (untreated) mice” value ([1]; 30 μg per mouse over 7 days) was 153%, the “thrombomodulin positive small vessel density relative to normal (untreated) mice” value ([1]; 30 μg per mouse over 7 days) was 147% and the “total SMA positive vessel density relative to normal (untreated) mice” value ([1]; 30 μg per mouse over 7 days) was 141%. The “total thrombomodulin positive vessel density relative to normal (untreated) mice” value ([1]; 30 μg per mouse over 7 days) was 151%, the “binding to cells expressing PDGF alpha receptors” value [2] was “binds” and the “interaction with VEGFR-2-Ig” value [3] was “failed to show any interaction”. The “interaction with VEGFR-1-Ig” value [4] was “failed to show any interaction”.
